# Assay results as given in publication PMC6221947 (Structure (London, England : 1993), 2018).
# T1: Trypanosoma brucei deoxyhypusine synthase, catalytic paralog (TbDHSc), His-SUMO tag removed (T. brucei, UniProt Q38BX0 1-461)
# T1 sequence: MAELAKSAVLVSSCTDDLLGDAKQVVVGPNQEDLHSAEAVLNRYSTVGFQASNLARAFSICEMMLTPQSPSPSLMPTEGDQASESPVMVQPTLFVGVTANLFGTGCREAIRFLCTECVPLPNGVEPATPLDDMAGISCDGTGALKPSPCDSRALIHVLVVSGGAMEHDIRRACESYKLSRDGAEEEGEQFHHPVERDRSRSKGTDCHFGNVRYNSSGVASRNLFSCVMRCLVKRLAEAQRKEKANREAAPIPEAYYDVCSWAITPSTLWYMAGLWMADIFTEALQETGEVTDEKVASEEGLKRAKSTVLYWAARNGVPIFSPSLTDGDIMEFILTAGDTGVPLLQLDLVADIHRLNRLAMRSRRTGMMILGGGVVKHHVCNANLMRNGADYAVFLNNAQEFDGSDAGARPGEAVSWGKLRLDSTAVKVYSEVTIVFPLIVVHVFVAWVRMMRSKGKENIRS
# B1: TbDHSc:DHSp (Trypanosoma brucei brucei TREU927) (protein)
# chain 1: T1 sequence
# chain 2: MSGVPFPSRVIGDLDYSNLLNIGQEEAIRCVLNAYPNIGLEATNLGRARRIVQRALNDNGMDGNKVMLAYTSNLISSGLRDTFACLARENRIGAVVTTAGGVEEDVIKCLGDTLVGDFALNDHALRNNGLNRVGNLLVPNDNYRNFEDFFVPLLRRLHEQQRDSRWTTKTTPSQIIAEIGAALESVRPNDCGSSLIYWCYRNDIPVFSPAFTDGSMGDMIYFYNYSRKGLVVDPVPDVRRLRQLGCKSTNVGRITCIVLGAGLPKHHLLRNVQADAVVYVTTGSDADGCESSCNVMADRANGLLSPNCDVVRVHGDATIISPLLLLRSSDGKEKVGVREDGN
# B2: Trypanosoma brucei deoxyhypusine synthase prozyme paralog (TbDHSp), untagged (natural protein, T. brucei, UniProt Q4GZD1 1-342, looked up)
# chain: B1 chain 2
# How the values were obtained:
# purified protein [1] = substrate: NCCCCNCCCN; test: purified protein; format: biochemical, Trypanosoma brucei; details: 1 mM NAD+, 15 μM TbeIF5A, 5 nM DHS; labelled compound
# purified protein [2] = substrate: NC(=O)c1ccc[n+]([C@@H]2O[C@H](COP(=O)(O)OP(=O)(O)OC[C@H]3O[C@@H](n4cnc5c(N)ncnc54)[C@H](O)[C@@H]3O)[C@@H](O)[C@H]2O)c1; test: purified protein; format: biochemical, Trypanosoma brucei; details: 78 μM [14C]spermidine, 15 μM TbeIF5A, 5 nM DHS; varied: cofactor
# [3] = target: T1, Trypanosoma brucei deoxyhypusine …; test: crystal structure
Binder,Km (purified protein [1]) [µM],kcat (purified protein [1]) [s⁻¹],Km (purified protein [2]) [µM],kcat (purified protein [2]) [s⁻¹],binding result [3]
B1,9.8 ± 1.2,0.18 ± 0.01,1.3 ± 0.18,0.15 ± 0.0045,
B2,,,,,binds
